Consider 2 molecules from US20120302737A1 (Genentech, published 2012).

For test [1], the target named is T1, HER2 receptor ECD (UniProt P04626 23-652, limits assumed).
T1 construct: extracellular domain; also called HER2ECD; HER2 extracellular domain
Put plainly: Octet; antibody loaded on the probe, 1st antigen HER2. (In BLI a coated tip is dipped into the sample, and binding shifts an interference pattern.)

Test [2] has as its target T2, EGFR on cells (NR6 expressing EGFR; HCA7) (UniProt P00533 25-1210, limits assumed).
T2 construct: whole, on cells; also called EGFR-NR6; EGFR-expressing NR6 cells
Put plainly: equilibrium binding on NR6 cells expressing EGFR, radiolabeled antibody competed with unlabeled antibody.

The target of test [3] is T2, EGFR on cells (NR6 expressing EGFR; …). Nature of the test: equilibrium binding on HCA7 cells co-expressing EGFR and HER2, radiolabeled antibody competed with unlabeled antibody.
Test [4] addresses T1, HER2 receptor ECD. Put plainly: Octet; loaded probe, 1st antigen HER2.

B1: wild-type α-EGFR antibody (D1.5) (antibody, human IgG1, kappa, V domains shown)
VH: EVQLVESGGGLVQPGGSLRLSCAASGFTFTGNWIHWVRQAPGKGLEWVGEISPSGGYTDYADSVKGRFTISADTSKNTAYLQMNSLRAEDTAVYYCARESRVSYEAAMDYWGQGTLVTVSS
VL: DIQMTQSPSSLSASVGDRVTITCRASQDVSTAVAWYQQKPGKAPKLLIYSASFLYSGVPSRFSGSGSGTDFTLTISSLQPEDFATYYCQQSYPTPYTFGQGTKVEIKR
notes: also called Wt α-EGFR (D1.5); D1.5 anti-EGFR antibody
In the case of B1, the binding result in test [1] is on record as “no binding”. The values for the Kd in test [2] and in test [3] were 0.56 nM and 0.34 nM, respectively.

B2: one-armed α-EGFR engineered antibody (antibody)
heavy: not shown
chain: not shown
light: DIQMTQSPSSLSASVGDRVTITCRASQDVSTAVAWYQQKPGKAPKLLIYSASFLYSGVPSRFSGSGSGTDFTLTISSLQPEDFATYYCQQSYPTPYTFGQGTKVEIKRTVAAPSVFIFPPSDEQLKSGTASVVCLLNNFYPREAKVQWKVDNALQSGNSQESVTEQDSKDSTYSLSSTLTLSKADYEKHKVYACEVTHQGLSSPVTKSFNRGEC
notes: also called 1-armed α-EGFR; One-Armed EGFR
In the case of B2, the binding result in test [4] was “no binding”. Further, the Kd (usually a measure of binding affinity in units of concentration) in test [2] is 1.15 nM.
